Assay: yeast display, Sf9 membrane polyspecificity reagent, FACS + sequencing; frameworks hold sequencing errors
Method in brief: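 A nanobody's polyreactivity label depends on the gate it was sorted from. Yeast display cells were stained with 10% biotinylated, detergent-solubilized Sf9 membrane reagent for 1 hour at 4 °C, enriched on streptavidin microbeads and sorted by FACS. The low and high (top ~1%) gates were set on anti-HA fluorescence for expression and streptavidin fluorescence for reagent binding.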

Sequence | polyreactivity (PSR sort gate)
QVHLVESGGRLVQAGGSIRLSCAASGLTYGSYAMGWYRQAPGKERELVAAIYQSGGSTYYADSVMARFTISRDNANNTVYLQMNRLKPEDTVVYYCNAEAWVTLDWWQWVAYDFWGQGTQVTVSS | high polyreactivity
QVHLVESGGRLVQAGGSLRLSCAESGFTFGSNVKGAYRQAPGKEREFVDAITSSGRTKYADSVKGRFTISRDNAKNTVYLQMNSLKPEDTAVYYCAARPSQWNYDYRRVYYWVQGTQVTVSS | high polyreactivity
QVHLVESGGVLVQAGGSLRLSCAASAGNFDTYAMGRYRQAPGKEREMVADITWSGGSTYYADSVKGRFTISRDNAKNTVYLQMNSLKPEDTAVYYCNADDPSKLGYEPDYWGQGTQVTVSS | low polyreactivity
QVHLVESGGVLVQAGGSLRLSCAASGFTFNRYAMGWYRQAPGKERELVAAITSAGNTYYADSVKARFTNSRDNGKNTVYLQMNSMKPEDTAVYYCLNGRYWRRYDYWGQGTQVTVSS | high polyreactivity
QVHLVESGGVLVQAGGSLRLSCAASGSIFDDYAMGWYRQAPGKERELVAAISSSGTSTYYADSVKGRFTISRDTANNTVYLQMNSLKPEDTAVYYCAARSAILDYWGQGTQVTVSS | low polyreactivity
QVHLVESRGVLVQAGCSLRLSCAASGRIFTDYAMGWYRQAPRKERELVAAISGSGGSTYYADSVKVRFSISRDNAKNNVYLQMNSLKPEDTAVYYCAARVARRYEWGQGTQVTVSS | high polyreactivity
QVHLVESRGVLVQAGGSLRLSCAASGRTFGYYAMGWYRQAPGKERELVAAINGSGSRTYYADSVKGRFTISRDNAKNSVYLQMNSLKPEDSAVYYCAATYPKYQYDYWGQGTQVTVSS | high polyreactivity
QVHLVESVGGLVQAGGSLRLSCAASGYIFGGYAMAWYRQAPGKERELVAAISRSGGSTYYADSVKGRFTISRDNAKNTVYLQINSLKPVDTAVYYCAVRGYTLPYGYWGQGTQVTVSS | high polyreactivity
QVHLVESVGGLVQAGGSLRLSSPASGGTLWVNTMGWYRQAPGKERELVAAISRRGGSTYYADSVKGRFTISRDNAKNTVYLQMNSRKPEDTAVYYCNARENAVSLRDYWGQGTQVTVSS | high polyreactivity
QVHLVESWGGLVQAGGSLRLSCAASGSTFGYNAMGWYRQAPGKERELVAAITSGGSTNYADSVKGRFTISRDNAKNTVYLQMNSLKPEDTAVYYCAKLAADRRSYYWGQGTQVTVSS | high polyreactivity
QVHLVQSGGGLVQAGGSLRLSCAASGSILYFYAKGWYRQAPGKERELVAAISWTGGSTYYADSVKGRFTISRDNAKNTVYLQMNSLKPEDTAVYYCAAELWYEGYDYWGQGTQVTVSS | high polyreactivity
QVHLVVSGGGLVQAGRSLRLICAASGSTFKAYAMGWYRQAPGKERELVAAITRRGTSTYYADSVKGRFTISRDNAKKTVYLQMNSLKPEDTADYYSNAKYVSDRSSAVSFDYWGQGTQVTVSS | low polyreactivity
QVHQQESGGDLEQAGGSLRLSCTASGTISDVRFMGWYRQAPGKERELVATISYVTITYYADSVKGRFTISRDSEKHRVSADDEHETGRYRGVFLLYYWGLGTQVTVSS | low polyreactivity
QVHRVESGGGLVQAGGSLRLSCDASGNIFYDYAMGWYRQGPGKERELVAAIDLSDGSTYYSDSVKGRFTISRDNAKNTVYFQMNSLKPDDTAVYYCAADIIAAWTSDYYYWGQGSQVTVSS | high polyreactivity
QVHRVESGGGLVQAGGSLRVSCAATGINFSDYAMGWYRQEPGKERQLVAAITGGGSTYYADSVKGRFTISRDNAKNTVYLQMNSLKPEDTAVSYCNAVWARLWIRSTEVDYRGQGTQVTVSS | low polyreactivity
QVKHVESGGGLVQAGCILRLSCSASGSTFARYAMGWYRQSPGKERELVAGISQSGGTTYYADSVKGRFTISRDNEKNTVYLQMNSLKPEDTAVYYCAARRWVAYTLEYWGQGTQVTVSS | high polyreactivity
QVKIVESGGGLVQAGGSLRLSCAASGGIFNWYAMGWYRPAPGKERELVAAITQSGGSTYYADSVKGRFTISRDNAKNTEYLQMNSLKPEDTAVYYCNKDQEKFWTAFNTIGRAREYDYWGQGTQVTVSS | low polyreactivity
QVKLEESGGGLVQAGGSISLSCAASGSIFFWYTMGCYRQAPGKERELVATITGSGSSTTYADSVKGRFTISRDNAKNTVYLQMNSLKPEDTAVYYCAAADIIDHSFTYDYWGQGTQVTVSS | low polyreactivity
QVKLEESGGGLVQAGGSLRLSCAASGSTFPGNAMGSYRQAPGKERELVAAINWSGDSTYYADSVKGRFTNSRDKPKNTVYLQMNSLTPEDTAVYYCAAYGDGYYYWGQGTQVTVSS | low polyreactivity
QVKLQESGGSHVQAGGSLRLSCAASGFIFARNYIGWYRQAPCKERELVAGIGVRASTNYADSDKGRFTISRDNAKNSVYLQMNSLEPEDTAVYYCAVGDTVLGYHYYWGQGTQVTVSN | low polyreactivity
QVKLVDSGGGLVQAGGSLRLTCAASGRTLGRNGMGWYRQDPGKERELVAAISLSGGRSYADSVKGRFTISRDNAKNSVYLQMNSLKPEDTAVYYCAKVGYSRRYAYNVYYWGQGTQLTVSS | low polyreactivity
QVKLVESAAGLVQPGGSHRLSCAASGRIFSYYAMGWSRQAPGKDRELVAAISRTGGTTYYADSVKGRFTSSRDNAKNTVYLQMNSLKPEDTAVYYCNAVKAPYLSYDYWGKGTQVTVSS | high polyreactivity

Sequence | polyreactivity (PSR sort gate)
QVKLVESGGGLDQAGGSLRLSCAASGRTFGSYTMGWYRQAPGKERELVAAITSGGRTNYADSVKGRFTISRDNAKNTVYLQMNSLKPEDTAVYYCAAGWRGGRYRYFAYDYWGQGTQVTVSS | high polyreactivity
QVKLVESGGGLVQAGGRLSLSCAASGLTLSGNAMGWYRQAPGKDRELVAAITGRGGSTTYADSVKGRFTISRDNAKNTVYLQMNSVKPEDTAVYYCAATRYSWNNRVSRRHRYEYWGQGTQVTVSS | high polyreactivity
QVKLVESGGGLVQAGGSLLLSCAASGITFSRNAMGLYREAPGKERELVAAINWTGGNTYYADSVKGRFTISRDNAKNTVYLQMISMKPEDTAVYYCAAERRCFVWGLGYWGQGTQVTVSS | low polyreactivity
QVKLVESGGGLVQAGGSLLLSCDASGIIFKYYAMGWYRQAPGKERELVARITARGGRTYYADSVKGRFTISRDNAKNTVYLQMNSLKPEDTAFYYCAKKLRGWHTIITDYDYWGQGTQLTVSS | low polyreactivity
QVKLVESGGGLVQAGGSLRISCAASVSIFPVYAMGWYRQAPGKERELVAAISSRGGRTYYADSVKGLFTISRDNAKNTVYLQMNSLKPEDNAVYYFATDYSTYYRLPSQYDYWGQGTQVTVSS | low polyreactivity
QVKLVESGGGLVQAGGSLRLICAASGFTFRYYTMGWYRQAPGKARELVAAISRSSGSRTYYADSVKGRFTISRDNAKNTVYLQMNSLKPEDTAVYYCNADPAYQFDYWGQGTQVTVSS | high polyreactivity
QVKLVESGGGLVQAGGSLRLSCAASGIIFYDYAMGWYRQAPGKERELVAAISSGGDTYYADSVKGRFTISRDNAKNTVYLQMNSLKPEVTAVYYCAAYPPFIYSDPSIWYDYWGQGSQVTVSS | low polyreactivity
QVKLVESGGGLVQAGGSLRLSCAASGIIFYSYAIGGYRPAPGTERELVAAISSTGSTYYADSVKGRFTISRDNAKNTVYLQMNSLKPEDTAVYYCAATFYPYQVHHYYYWGQGTQVTVSS | low polyreactivity
QVKLVESGGGLVQAGGSLRLSCAASGRIFGRNTMGWYRQAPGKEREFVATITSGGSTYYADSVKGRFTISRDNAKNTVYLQMNSLKPEDTAVYYFNARGYSWRWYPLTSDYDSWGQGTQVTVSS | high polyreactivity
QVKLVESGGGLVQAGGSLRLSCAASGRIFRFNPMGCYRQAPGKERELVAASNWRGGTTYADSVKGRFTISRDNAKNTVYLQMNSLKPEDTAVYYCNAGYGVTKWPYEERYDYWGQGTQVTLSS | high polyreactivity
QVKLVESGGGLVQAGGSLRLSCAASGRTFPSYAMGWYRQAPGKERELVAAISRSGGSTYYADSVKGRFTISRDNAKNPVYLQMNSLKPEDTAVYYCAAVSRVHFSYIYDYWGQGTQVTVSS | high polyreactivity
QVKLVESGGGLVQAGGSLRLSCAASGRTFPYYAKGWYRQAPGKERELVAAISWSGGSTYYADSVKGRFTISRDNAKNTVYLQMNSLKPEDTAVYYCNTVFSPWPDFRRFGYWGQGTQVTVSS | high polyreactivity
QVKLVESGGGLVQAGGSLRLSCAASGRTFYLYAMGWYRQAPGKERELVARITSGGTTNYADSVKGRFTISRDNAKNTVYLQMNSLKPEDTAVYYCAADPEGLGRVASRYFHFDYWGQGTQVTVSS | low polyreactivity
QVKLVESGGGLVQAGGSLRLSCAASGSIFLAYAMGWYRQAPGKEREFVAAISCSDGSTYYADSVKGRFTISRDNAKNTVYLQMNSLKPDDTAVFYCYKGASADDYDYCGQGTQVTVSS | low polyreactivity
QVKLVESGGGLVQAGGSLRLSCAASGSIFLVKVMGWYRQAPGKERELVAAITWSGGRTYYADSVKGRFTISRDNAKNTVYLQMIILKPEDTAVYYCAAEGWLLNGDSWGQGTQVTVSS | high polyreactivity
QVKLVESGGGLVQAGGSLRLSCAASGSIFPHYAMGWYRQAPGKERELVAAISRGGSTNYADSVKGRFTISRDNAKNTVYLQMNSLKPEDTAVYYCNALRYYSRFLYAVAYRYDYWGQGSQVTVSS | high polyreactivity
QVKLVESGGGLVQAGGSLRLSCAASGSIFRRYGMGWYRQAPGKERELVAVITRGGSTYYADSVKGRFTISRDNAKNTVYLQMNSLKPEDTAVYYCNRSAGKDGQVGGQYDYWGQGTQVTVSS | high polyreactivity
QVKLVESGGGLVQAGGSLRLSCAASGSIFVGYAIVWYRQAPGKERELVAAISTRGGSTYYADSVKGRFTISRENAKNTVYLKMNSLTPEDTAVYYCAADYLDSTYGYVYGWDDYWGQGTQVTVSS | low polyreactivity
QVKLVESGGGLVQAGGSLRLSCAASGSIFYQYAMGGNRQAPGKERELVAVINRSGSSTYYADSVKGRFTISRDNAKNTVYLQMNSLKPEDTAVYYCAGASKYSEYNYWGQGTQVTVSS | high polyreactivity
QVKLVESGGGLVQAGGSLRLSCAASGSTFPGYAMGWYRQAPGKERELVAAGGSTYYADSVKGRFTISRDNAKNTVYLQMNSLKTEDTAVYYCAATWGSVQKGTYYYWGQGTQVTVSS | low polyreactivity
QVKLVESGGGLVQAGGSLRLSCAASGSTFVGYAMGWYRQAHGKERELVAAINDSGGSTYYADSVKGRFTISRDNAKNTVYLQMNSLKPEDTAVYYCAADSSGTSWYTFDYWGQGTQVTVSS | low polyreactivity

— the nanobody polyreactivity screen of Harvey et al. (2022)
